Source: US20130086703

System: full-length human Keratin 6

Kgp
enzymatic degradation products detected by mass spectrometry (on spot profiling): peptides consisting of the amino acid sequences shown by SEQ ID NOs: 4 and 5 (peptides 6 and 7) were newly identified as Kgp degradation products of human Keratin 6
